Key:
[1] = target: T1, CD40 (Homo sapiens, UniProt P25942); experiment: CD40 agonistic activity in primary CLL cells, 48 h, flow cytometry; format: cell-based; settings: for CD40 stimulation (viability, CD86 and CD95 expression): various concentrations, FIG. 3A-C
T1 construct: Primary chronic lymphocytic leukemia (CLL) cells express CD40 on the cell surface; endogenous in cells; host or cells: primary CLL PBMCs from untreated CLL patients
Description: PBMCs (≥90% CD5^+CD19^+) from untreated CLL patients were obtained and cryopreserved as described in Example 3. Thawed cells were kept in complete IMDM.
To assess whether binding of the VHH to CD40 has agonistic effects, primary CLL PBMCs were cultured for 48 hours in the presence of VHH, medium control or recombinant multimeric CD40 ligand (rmCD40L; 100 ng/mL, Bioconnect).
After 48 hours, cells were harvested, washed and incubated with AF700-conjugated anti-CD19 (557921), FITC-conjugated anti-CD80 (6109965), APC-conjugated anti-CD86 (555660, all BD Biosciences), PE-conjugated anti-CD5 (12-0059-42, Thermo Fisher Scientific) and PECy7-conjugated anti-CD95 (305621, Biolegend, San Diego, Calif., USA) antibodies for 20 minutes at 4° C. Alternatively, after 48 hours, cells were harvested and viability was measured using Mitotracker Orange (25-minute incubation at 37° C.) and To-pro-3 (10-minute incubation at room temperature; both Thermo Fisher Scientific). Samples were measured on a FACSCanto cytometer (BD Biosciences) and analyzed with Flowjo MacV10.
To assess whether binding of the VHH has agonistic effects, primary CLL PBMCs were cultured with the indicated concentrations of V19S76K-5C8, medium control or rmCD40L for 48 hours and analyzed by flow cytometry as described in Example 4.

[2] = target: T1, CD40; experiment: CD40 antagonistic activity in primary CLL cells: pre-incubation, then rmCD40L for 48 h; format: cell-based; settings: 30 min pre-incubation, then rmCD40L 100 ng/mL for 48 hours; FIG. 4A-C
Description: PBMCs (≥90% CD5^+CD19^+) from untreated CLL patients were obtained and cryopreserved as described in […]. Thawed cells were kept in complete IMDM.
To test whether the VHH antagonizes CD40 stimulation, primary CLL PBMCs were pre-incubated with VHH or medium control for 30 minutes at 37° C. and subsequently cultured for 48 hours in the presence of rmCD40L (100 ng/mL).
After 48 hours, cells were analyzed by flow cytometry as described in Example 4.
To assess whether binding of the VHH has antagonistic effects, primary CLL PBMCs were pre-incubated with V19S76K-5C8 or medium control and then cultured with rmCD40L for 48 hours and analyzed by flow cytometry as described in Example 5.

[3] = target: T2, human CD40 (CD40-transfected HEK293T cells) (Homo sapiens, UniProt P25942); experiment: Monovalent VHH binding to CD40-transfected HEK293T cells, Myc-tag flow cytometry; settings: for average geometric mean fluorescence intensity (Myc-tag): CD40-transfected HEK293T cells, 2 experiments
T2 construct: expressed in transfected cells; host or cells: HEK293T
T2 sequence (P25942 21-277): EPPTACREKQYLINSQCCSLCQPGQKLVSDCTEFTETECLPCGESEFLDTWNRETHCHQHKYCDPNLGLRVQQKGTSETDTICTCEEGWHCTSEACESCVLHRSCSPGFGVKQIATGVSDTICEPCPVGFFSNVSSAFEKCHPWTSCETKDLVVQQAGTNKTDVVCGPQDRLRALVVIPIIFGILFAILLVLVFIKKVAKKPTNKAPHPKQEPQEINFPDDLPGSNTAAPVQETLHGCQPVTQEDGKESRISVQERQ
Description: The embryonic kidney cell line HEK293T, either wildtype (WT) or transfected with human CD40, was grown in Dulbecco's Modified Eagle Medium (41965-039, Thermo Fisher Scientific, Waltham, Mass., USA), supplemented with 10% fetal calf serum (F7524, Merck, Kenilworth, N.J., USA), 200 mM L-glutamine (25030-123, Thermo Fisher Scientific), 0.05 mM β-mercapto-ethanol (M6250, Merck) and 10,000 U/mL penicillin/streptomycin (15140-122, Thermo Fisher Scientific), hereafter referred to as complete DMEM.
CD40 expression on CD40-transfected cells was confirmed by incubation with a PE-conjugated anti-CD40 antibody (IM1936U, Beckman Coulter, Brea, Calif., USA) for 20 minutes at 4° C. […] Bound VHH was detected by sequential incubation with mouse-anti-Myc tag (05-274, Merck) and AF488-conjugated goat-anti-mouse (A-11001, Thermo Fisher Scientific) antibodies for 20 minutes at 4° C.
Samples were measured on a FACSCanto cytometer (BD Biosciences, Franklin Lakes, N.J., USA) and analyzed with Flowjo MacV10.

[4] = target: human CD40 (human, UniProt P25942 21-277); experiment: cell-based or functional assay
human CD40, sequence (P25942 21-277 limits assumed): as the sequence (P25942 21-277) above

T1 sequence (P25942 21-277): as above

Question: Which results are given for “rmCD40L: recombinant multimeric CD40 ligand, 100 ng/mL, Bioconnect [reference compound]”?
Answer: CD40 stimulation (expression of CD80, CD86 and CD95) ([1]; FIG. 7A-C): effectively induced CD40 stimulation; CD40 stimulation (viability, CD86 and CD95 expression) [1]: effectively induced CD40 stimulation

B1: V12t: monovalent anti-CD40 VHH V12 with C-terminal Myc- and His6-tag, SEQ ID NO:36 (protein)
VHH: QVQLQESGGGLVQAGGSLRLSCAASGLVFKRYSMNWYRQPPGQQRGLVASISDSGVSTNYADSVKGRFTISRDNAKNIGYLQMNSLKPEDTAVYYCNMHTFWGQGTQVTVSSGLEGHSDHMEQKLISEEDLNRISDHHHHHH
modifications: antibody sequence
Question: How did the “prevention of CD40L-induced CD40 stimulation (viability, CD86 and CD95 expression)” value [2] turn out when B1 was run?
Answer: did not block CD40L-induced effects

Question: And the “CD40 stimulation (viability, CD86 and CD95 expression)” value [1]?
Answer: did not induce any of these effects

Question: And the “binding to CD40-expressing cells” value ([3]; detection of the Myc tag, FIG. 1B)?
Answer: bound to the CD40-expressing cells

B2: V19-5C8t (bispecific antibody)
chain: QVQLQESGGGLVQAGGSLRLSCAASGRTFGRSAMGWFRQAPGKEREFVAAIGTRGGSTKYADSVKGRFTISTDNASNTVYLQMDSLKPEDTAVYRCAVRGPGYPSAAIFQDEYHYWGQGTQVTVSSGGGGSEVQLVESGGGLVQAGGSLRLSCAASGRPFSNYAMGWFRQAPGKEREFVAAISWSGGSTSYADSVKGRFTISRDNAKNTVYLQMNSPKPEDTAIYYCAAQFSGADYGFGRLGIRGYEYDYWGQGTQVTVSSGLEGHSDHMEQKLISEEDLNRISDHHHHHH
Question: For B2, which “lysis of primary CLL cells by Vγ9Vδ2-T cells (specific cell death) at 100 nM” value [4] is on record?
Answer: 68.5%

B3: V15-5C8t (bispecific antibody)
chain: EVQLQESGGGLVQAGGSLRLSCVTSGSAFSSDTMGWFRQAPGKQRELVASISSRGVREYADSVKGRFTISRDNAKNTVYLQMNSLQPEDTAVYYCNRGALGLPGYRPYNNWGQGTQVTVSSGGGGSEVQLVESGGGLVQAGGSLRLSCAASGRPFSNYAMGWFRQAPGKEREFVAAISWSGGSTSYADSVKGRFTISRDNAKNTVYLQMNSPKPEDTAIYYCAAQFSGADYGFGRLGIRGYEYDYWGQGTQVTVSSGLEGHSDHMEQKLISEEDLNRISDHHHHHH
Question: B3 was tested. Which “lysis of primary CLL cells by Vγ9Vδ2-T cells (specific cell death) at 100 nM” value [4] did it give?
Answer: 70.5%

B4: V19S76Kt: V19t VHH in which serine at position 76 (putative glycosylation site) was altered into lysine, SEQ ID NO:22 (protein)
VHH: QVQLQESGGGLVQAGGSLRLSCAASGRTFGRSAMGWFRQAPGKEREFVAAIGTRGGSTKYADSVKGRFTISTDNAKNTVYLQMDSLKPEDTAVYRCAVRGPGYPSAAIFQDEYHYWGQGTQVTVSSGLEGHSDHMEQKLISEEDLNRISDHHHHHH
modifications: antibody sequence
Question: B4 was tested. Which “binding affinity to CD40 after S76K mutation, relative to V19t” value [3] did it give?
Answer: retained

Question: And the “average geometric mean fluorescence intensity (Myc-tag)” value ([3]; VHH concentration 1 pM)?
Answer: 4790

Question: What about the “average geometric mean fluorescence intensity (Myc-tag)” value ([3]; VHH concentration 10 pM) of the same molecule?
Answer: 4949

Question: What about the “average geometric mean fluorescence intensity (Myc-tag)” value ([3]; VHH concentration 100 pM) of the same molecule?
Answer: 5502

Question: What about the “average geometric mean fluorescence intensity (Myc-tag)” value ([3]; VHH concentration 1 nM) of the same molecule?
Answer: 7906

Question: And the “average geometric mean fluorescence intensity (Myc-tag)” value ([3]; VHH concentration 10 nM)?
Answer: 9283

Question: And the “average geometric mean fluorescence intensity (Myc-tag)” value ([3]; VHH concentration 100 nM)?
Answer: 17062

B5: V12-5C8t (bispecific antibody)
chain: QVQLQESGGGLVQAGGSLRLSCAASGLVFKRYSMNWYRQPPGQQRGLVASISDSGVSTNYADSVKGRFTISRDNAKNIGYLQMNSLKPEDTAVYYCNMHTFWGQGTQVTVSSGGGGSEVQLVESGGGLVQAGGSLRLSCAASGRPFSNYAMGWFRQAPGKEREFVAAISWSGGSTSYADSVKGRFTISRDNAKNTVYLQMNSPKPEDTAIYYCAAQFSGADYGFGRLGIRGYEYDYWGQGTQVTVSSGLEGHSDHMEQKLISEEDLNRISDHHHHHH
Question: How did the “lysis of primary CLL cells by Vγ9Vδ2-T cells (specific cell death) at 100 nM” value [4] turn out when B5 was run?
Answer: 45.3%

— patent publication US20220135694A1, “NOVEL CD40-BINDING ANTIBODIES” (LAVA THERAPEUTICS B.V., priority 2019, published 2022)
